{"source": "patent US20250002921A1", "about": "“SPHERICAL NUCLEIC ACIDS FOR cGAS-STING AND STAT3 PATHWAY MODULATION FOR THE IMMUNOTHERAPEUTIC TREATMENT OF CANCER” (NORTHWESTER UNIVERSITY, priority 2021, published 2025)", "molecules": {"B1": {"name": "ISD-45: free 45 bp interferon-stimulatory dsDNA oligonucleotide, the most used and widely characterized cGAS activator (nucleic acid)", "sense": "TACAGATCTACTAGTGATCTATGACTGATCTGTACATGATCTACA", "antisense": "ACATCTAGTACATGTCTAGTCAGTATCTAGTGATCATCAGACA", "modifications": "DNA, backbone and methylation of C not given here"}}, "test_system": "IRF", "experiment": "IRF reporter assay in isogenic cGAS-, STING- and IRF-deficient macrophages", "type": "cell-based", "conditions": "IRF-deficient macrophages, FIG. 2D", "from_the_text": "(A) ICP-MS to quantify cellular level of gold in cells treated with ISD45-SNAs. (B-D) Luciferase reporter assay to quantify IRF induction in RAW-Lucia™ macrophages (B), THP cells (C), and in WT, cGAS-, STING- and IRF-deficient RAW-Lucia™ macrophages. TFX, transfection agent. Median+/−standard deviation is shown. *p<0.05. (E) Multiplex ELISA-based and (F) antibody array-based cytokine profiling in RAW-Lucia™ macrophages.\nTo exploit the SNA architecture for cGAS activation, we synthesized ISD45-SNAs by conjugating 13 nm gold nanoparticles with 45 base pair (bp) dsISD oligonucleotides (ISD^45-SNAs; FIG. 1A), as 45 bp ISD oligonucleotides represent the most used and widely characterized cGAS activator^7. The terms “dsISD^45” and “ISD^45” are interchangeable as used herein. Citrate-stabilized gold nanoparticles were prepared using the Frens method^4,8,9. […] In addition, by generating melting curves, using an OliGreen fluorescence assay, and determining the zeta potential, oligonucleotide incorporation was quantified^4,8,9. […] Upon cGAS enzyme deactivation, the mixture was added to cGAS-deficient RAW-Lucia™ macrophages, carrying stable integration of an IRF-inducible Lucia luciferase reporter to quantify IRF induction luminometrically. […]", "data": [{"molecule": "B1", "values": [{"measurement": "IRF induction in the absence of STING, cGAS or IRF", "value": "blunted"}]}]}
